Numbering of substitutions follows the chain as printed. Names may count otherwise.
T1: GFP-Sec13, P55735
T1 chain: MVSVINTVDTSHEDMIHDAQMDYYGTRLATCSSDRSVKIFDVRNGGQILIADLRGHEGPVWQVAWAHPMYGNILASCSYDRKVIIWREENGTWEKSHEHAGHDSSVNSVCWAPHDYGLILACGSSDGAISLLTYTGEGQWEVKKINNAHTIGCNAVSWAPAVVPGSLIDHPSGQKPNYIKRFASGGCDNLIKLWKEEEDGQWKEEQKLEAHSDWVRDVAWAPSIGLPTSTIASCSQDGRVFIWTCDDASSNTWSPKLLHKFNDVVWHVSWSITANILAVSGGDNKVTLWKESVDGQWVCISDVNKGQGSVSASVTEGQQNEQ

B1: FLAG-tagged wild type (WT) Sec31, O94979 S527A (protein)
chain: MKLKEVDRTAMQAWSPAQNHPIYLATGTSAQQLDATFSTNASLEIFELDLSDPSLDMKSCATFSSSHRYHKLIWGPYKMDSKGDVSGVLIAGGENGNIILYDPSKIIAGDKEVVIAQNDKHTGPVRALDVNIFQTNLVASGANESEIYIWDLNNFATPMTPGAKTQPPEDISCIAWNRQVQHILASASPSGRATVWDLRKNEPIIKVSDHSNRMHCSGLAWHPDVATQMVLASEDDRLPVIQMWDLRFASSPLRVLENHARGILAIAWSMADPELLLSCGKDAKILCSNPNTGEVLYELPTNTQWCFDIQWCPRNPAVLSAASFDGRISVYSIMGGSTDGLRQKQVDKLSSSFGNLDPFGTGQPLPPLQIPQQTAQHSIVLPLKKPPKWIRRPVGASFSFGGKLVTFENVRMPSHQGAEQQQQQHHVFISQVVTEKEFLSRSDQLQQAVQSQGFINYCQKKIDASQTEFEKNVWSFLKVNFEDDSRGKYLELLGYRKEDLGKKIALALNKVDGANVALKDSDQVAQADGEESPAAEEQLLGEHIKEEKEESEFLPSSGGTFNISVSGDIDGLITQALLTGNFESAVDLCLHDNRMADAIILAIAGGQELLARTQKKYFAKSQSKITRLITAVVMKNWKEIVESCDLKNWREALAAVLTYAKPDEFSALCDLLGTRLENEGDSLLQTQACLCYICAGNVEKLVACWTKAQDGSHPLSLQDLIEKVVILRKAVQLTQAMDTSTVGVLLAAKMSQYANLLAAQGSIAAALAFLPDNTNQPNIMQLRDRLCRAQGEPVAGHESPKIPYEKQQLPKGRPGPVAGHHQMPRVQTQQYYPHGENPPPPGFIMHGNVNPNAAGQLPTSPGHMHTQVPPYPQPQPYQPAQPYPFGTGGSAMYRPQQPVAPPTSNAYPNTPYISSASSYTGQSQLYAAQHQASSPTSSPATSFPPPPSSGASFQHGGPGAPPSSSAYALPPGTTGTLPAASELPASQRTGPQNGWNDPPALNRVPKKKKMPENFMPPVPITSPIMNPLGDPQSQMLQQQPSAPVPLSSQSSFPQPHLPGGQPFHGVQQPLGQTGMPPSFSKPNIEGAPGAPIGNTFQHVQSLPTKKITKKPIPDEHLILKTTFEDLIQRCLSSATDPQTKRKLDDASKRLEFLYDKLREQTLSPTITSGLHNIARSIETRNYSEGLTMHTHIVSTSNFSETSAFMPVLKVVLTQANKLGV
B2: FLAG-tagged wild type (WT) Sec31, O94979 S527A; S799A; T1165A (protein)
chain: B1 chain with S799A, T1165A
B3: FLAG-tagged wild type (WT) Sec31, O94979 S799A (protein)
chain: B1 chain with A527S, S799A
B4: FLAG-tagged wild type (WT) Sec31, O94979 S527A; S799A (protein)
chain: B1 chain with S799A

Molecular target: GFP-tagged Sec23, Q15436
Experiment: co-immunoprecipitation (anti-GFP beads) and western blotting, single blot quantified
Conditions: chain shown with the change; HEK293 cells co-transfected; parent: 1

GFP-tagged Sec23, Q15436, sequence (Q15436 whole entry): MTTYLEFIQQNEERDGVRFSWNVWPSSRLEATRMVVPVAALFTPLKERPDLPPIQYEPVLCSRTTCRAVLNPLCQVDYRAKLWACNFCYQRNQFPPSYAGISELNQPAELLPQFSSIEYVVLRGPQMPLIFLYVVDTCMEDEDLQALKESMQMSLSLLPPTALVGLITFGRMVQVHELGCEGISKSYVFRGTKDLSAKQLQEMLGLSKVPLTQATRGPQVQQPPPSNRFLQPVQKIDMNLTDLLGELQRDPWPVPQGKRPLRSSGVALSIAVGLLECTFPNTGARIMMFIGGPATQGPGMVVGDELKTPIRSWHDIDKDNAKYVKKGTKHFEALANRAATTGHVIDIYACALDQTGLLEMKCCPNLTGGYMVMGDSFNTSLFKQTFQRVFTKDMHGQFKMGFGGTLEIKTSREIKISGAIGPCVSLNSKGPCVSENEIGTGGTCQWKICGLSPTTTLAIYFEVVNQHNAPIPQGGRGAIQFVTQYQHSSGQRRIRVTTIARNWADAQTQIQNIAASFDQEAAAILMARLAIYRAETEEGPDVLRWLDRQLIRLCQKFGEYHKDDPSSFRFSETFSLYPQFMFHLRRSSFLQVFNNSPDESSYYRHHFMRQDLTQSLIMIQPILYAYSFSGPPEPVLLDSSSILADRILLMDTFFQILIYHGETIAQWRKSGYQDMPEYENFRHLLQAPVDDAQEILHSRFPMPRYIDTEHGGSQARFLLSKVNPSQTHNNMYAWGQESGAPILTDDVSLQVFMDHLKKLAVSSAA

Point of comparison: B3, ratio to parent 1.4. Against it:
- B1 — lower, 1
- B2 — higher, 2.3

Molecular target: T1, GFP-Sec13, P55735
Experiment: co-immunoprecipitation and western blotting
Conditions: chain shown with the change;; parent: 0.8

Point of comparison: B2, other: normalized ratio of co-IP'ed Sec31 1.4. Against it:
- B1 — lower, 1
- B3 — lower, 1
- B4 — lower, 1.2

Molecular target: GFP-tagged Sec23, Q15436
Experiment: co-immunoprecipitation (anti-GFP beads) and western blotting, mean of three experiments
Conditions: chain shown with the change; HEK293 cells co-transfected; parent: est. 1.0; read off a plot

Point of comparison: B3, ratio to parent 1.5. Against it:
- B1 — lower, 0.9
- B2 — higher, 2.3

Reference: article PMC3548793
